Results from PMC3245869 (Molecular cell, 2008).

Target: T1, Rnr2-Rnr4 heterodimer (ribonucleotide reductase small subunit) (S. cerevisiae, UniProt P09938 1-399; P49723 1-345)
T1 sequence (looked up) 1: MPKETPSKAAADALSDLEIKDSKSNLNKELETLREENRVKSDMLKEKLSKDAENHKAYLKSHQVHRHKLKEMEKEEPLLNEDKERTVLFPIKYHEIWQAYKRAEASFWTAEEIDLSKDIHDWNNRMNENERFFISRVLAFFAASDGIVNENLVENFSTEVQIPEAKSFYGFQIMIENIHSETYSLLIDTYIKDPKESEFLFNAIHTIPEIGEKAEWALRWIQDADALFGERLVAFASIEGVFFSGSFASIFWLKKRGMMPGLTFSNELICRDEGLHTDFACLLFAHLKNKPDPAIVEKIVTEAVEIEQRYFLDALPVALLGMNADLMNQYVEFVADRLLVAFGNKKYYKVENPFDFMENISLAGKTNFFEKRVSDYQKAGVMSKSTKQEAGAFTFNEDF
T1 sequence (looked up) 2: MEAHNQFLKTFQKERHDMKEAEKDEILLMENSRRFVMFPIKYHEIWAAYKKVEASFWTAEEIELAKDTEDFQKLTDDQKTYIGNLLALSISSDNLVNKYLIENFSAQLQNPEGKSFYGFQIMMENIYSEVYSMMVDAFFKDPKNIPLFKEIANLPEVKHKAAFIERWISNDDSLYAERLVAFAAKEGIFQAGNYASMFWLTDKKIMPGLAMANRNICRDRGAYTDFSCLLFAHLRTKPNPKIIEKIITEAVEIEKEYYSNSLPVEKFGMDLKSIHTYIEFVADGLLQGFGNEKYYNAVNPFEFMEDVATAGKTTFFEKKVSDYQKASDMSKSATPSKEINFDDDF
Assay: SPR

- Kd: 600 nM
B1: Recombinant wild-type Dif1 protein (His6-Dif1) (natural protein, S. cerevisiae, UniProt O13577 1-133, looked up)
chain: MDAQLEWASSLVPKRQLQQQQQQQEQQQQQQQDFHKDQLMTVGMRIRQRVDQGYASRTPSTSDASLQPGVIRDYSSVIVPQFTRSPLPTANSLPPMLINQRTMSTEASSLEKWDVAEPAAEHETMVNGSKRRL
